Laboratory results taken from patent publication US20210270842A1 (DYAX, published 2021).

Assays:
[1] = target: T1, cleaved high molecular weight kininogen (HMWK) (human, UniProt P01042 19-380; P01042 390-644); test: sandwich ELISA with coated Fab; value = C, midpoint of the printed 4-P fit; 2-chain HMWK spiked into HMWK-deficient plasma, analysed in 2.5% plasma
T1 construct: also called cleaved HMWK; 2-chain HMWK
T1 sequence 1: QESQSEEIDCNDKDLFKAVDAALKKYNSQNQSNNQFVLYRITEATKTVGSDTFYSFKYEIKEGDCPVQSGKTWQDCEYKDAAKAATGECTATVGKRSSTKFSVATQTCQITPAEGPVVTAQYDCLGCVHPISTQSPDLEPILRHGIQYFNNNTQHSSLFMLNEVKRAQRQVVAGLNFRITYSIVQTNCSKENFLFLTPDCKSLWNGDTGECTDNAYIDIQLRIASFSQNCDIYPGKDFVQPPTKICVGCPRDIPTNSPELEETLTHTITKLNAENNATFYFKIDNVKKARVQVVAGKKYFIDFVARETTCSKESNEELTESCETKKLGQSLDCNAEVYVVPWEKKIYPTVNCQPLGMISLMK
T1 sequence 2: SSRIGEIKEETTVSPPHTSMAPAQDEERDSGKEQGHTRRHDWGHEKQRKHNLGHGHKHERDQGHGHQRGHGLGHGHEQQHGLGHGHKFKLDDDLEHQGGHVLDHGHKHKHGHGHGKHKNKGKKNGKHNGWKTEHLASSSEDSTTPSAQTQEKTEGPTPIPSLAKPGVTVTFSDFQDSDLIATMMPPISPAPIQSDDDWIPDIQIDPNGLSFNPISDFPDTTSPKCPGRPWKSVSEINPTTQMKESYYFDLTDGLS
Source text: Purified cleaved HMWK was spiked into SBT assay buffer (open circles), SBT assay buffer and analyzed in the presence of 10% plasma (squares), or HMWK-deficient plasma and analyzed in the presence of 10% plasma (triangles). Purified cleaved HMWK was also spiked into assay buffer and analyzed in the presence of 2.5% plasma (diamonds) or HMWK deficient plasma and analyzed in the presence of 2.5% plasma (closed circles). The y-axis presents the ELISA signal in absorbance units, and the x-axis presents the concentration of kininogen in μg/mL.
(§1) The following day, the plate was washed and then blocked with 2% BSA (Protease/IgG free) in PBS buffer. Following a wash, samples containing cleaved HMWK in 0.1% BSA buffer in PBS with 0.05% Tween-20 (2-Chain HMWK assay buffer). Purified protein standards (e.g., 2-chain HMWK, intact HMWK or LMWK) were spiked into HMWK-deficient plasma and diluted 1:320 in 2-chain HMWK assay buffer. Following plate washing with PBST, a mixture of 2 mouse monoclonal antibodies (11H05 and 13B12) at 1 μg/mL in 2-chain HMWK assay buffer were added for 1 hour at room temperature. […] Signal was detected by the addition of 3,3′,5,5′-tetramethylbenzidine (TMB), an HRP substrate. […] Hydrolysis of a TMB substrate was detected using a microplate reader at 450 nm-630 nm (FIG. 3). […] Using these immunoassay conditions, specifically binding to cleaved HMWK was detected.

[2] = target: T1, cleaved high molecular weight kininogen …; test: sandwich ELISA: Fab coated on 96-well plate, kininogen titrated, detection 11H05 + 13B12 and goat anti-mouse-HRP; value = C, midpoint of the printed 4-P fit; 2-chain HMWK spiked into HMWK-deficient plasma
Source text: Purified cleaved HMWK was spiked into SBT assay buffer (circles) or HMWK-deficient plasma (squares). Purified intact HMWK was spiked into SBT assay buffer (triangles). Purified LMWK was spiked into SBT assay buffer (diamonds). The y-axis presents the ELISA signal in absorbance units, and the x-axis presents the concentration of kininogen in μg/mL.
as §1, with “temperature. Unbound detection antibodies were washed and a 1:2000 dilution of goat anti-mouse secondary antibody conjugated to horseradish peroxidase (HRP) was added.” for “temperature.”

[3] = target: T1, cleaved high molecular weight kininogen …; test: ELISA on coated M004-B04, 2-chain HMWK titrated after preincubation of the plate with competitor HKH20 peptide at 250 µg/mL; value = C of the printed 4-P fit; squares, right-shifted curve (the callout box on the graph names this curve GCP28: see recheck)
Protocol: Following plate washing with PBST, a mixture of 2 mouse monoclonal antibodies (11H05 and 13B12) at 1 μg/mL in 2-chain HMWK assay buffer were added for 1 hour at room temperature. Unbound detection antibodies were washed and a 1:2000 dilution of goat anti-mouse secondary antibody conjugated to horseradish peroxidase (HRP) was added. The assay containing the secondary antibody was incubated for 1 hour at room temperature, and unbound secondary antibody was removed by washing with 2-chain HMWK assay buffer. Signal was detected by the addition of 3,3′,5,5′-tetramethylbenzidine (TMB), an HRP substrate. The reaction was stopped with phosphoric acid. Hydrolysis of a TMB substrate was detected using a microplate reader at 450 nm-630 nm (FIG. 3). […] Using these immunoassay conditions, specifically binding to cleaved HMWK was detected.
To perform the assay, the kininogen peptides were diluted to 250 μg/mL and allowed to preincubate on assay plate. Then, purified 2-chain HMWK in deficient human plasma was diluted 160 and then added to plate.

EC50 [1]: 184 µg/mL
EC50 [2]: 247 µg/mL
EC50 [3]: 0.0375 µg/mL
B1: 559B-M0004-B04 (Fab, V domains shown)
VH: EVQLLESGGGLVQPGGSLRLSCAASGFTFSFYVMVWVRQAPGKGLEWVSGISPSGGNTAYADSVKGRFTISRDNSKNTLYLQMNSLRAEDTAVYYCARKLFYYDDTKGYFDFWGQGTLVTVSS
VL: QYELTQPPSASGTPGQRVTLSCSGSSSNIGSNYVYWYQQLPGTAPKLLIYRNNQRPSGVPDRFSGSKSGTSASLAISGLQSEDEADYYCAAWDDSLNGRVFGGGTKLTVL
notes: also called M004-B04
